Assays:
Settings in all cases: both partners purified
[1] = biological target: T1, F-actin from chicken pectoral skeletal muscle (chicken, UniProt P68139 1-377); experiment: differential scanning calorimetry; tropomyosin 15 µM and TnT 70–170 18 µM with phalloidin (36 µM) stabilized F-actin (24 µM), 100 mM NaCl, 10 mM Hepes pH 7.0, 2 mM MgCl2, 1 mM DTT; three heating scans at 1°C/min; peak of unfolding/dissociation of actin-bound tropomyosin
[2] = biological target: T1, F-actin from chicken pectoral skeletal …; experiment: co-sedimentation; tropomyosin 0.1–10 µM with 0.12–12 µM troponin T 70–170 (1.2× molar excess) and 5 µM F-actin, 20°C, 250 mM NaCl, 10 mM TrisHCl pH 7.5, 2 mM MgCl2, 0.5 mM DTT; pellets and supernatants by SDS-PAGE and densitometry; apparent constant (Kapp) and Hill coefficient from a fit to the Hill equation
[3] = biological target: T1, F-actin from chicken pectoral skeletal …; experiment: light scattering temperature scan; unlabeled tropomyosin 6 µM, TnT 70–170, phalloidin (27 µM) stabilized F-actin (18 µM), 100 mM NaCl, 10 mM sodium phosphate pH 7.5, 2 mM MgCl2, 1 mM DTT; 90° scattering at 245 nm, 20–65°C at 1°C/min; temperature of 50% decrease in scattering

Binder | DSC TM of dissociation from F-actin (TM3) [1] [°C] | DSC ΔΔH (with minus without F-actin) [1] [kcal/mol] | Ka [2] [M⁻¹] | light scattering TM (half maximal dissociation from F-actin) [3] [°C]
P2P3Shift tropomyosin (Y60A/L64A/L106A/A120L) (natural protein, striated muscle alpha-tropomyosin, rat, cDNA in pET11d, expressed with an unacetylated N-terminal Met; combines the P2Shift and P3Shift mutations; TnT 70-170 present in every actin experiment; source: E. coli BL21 (DE3), purified (ammonium sulfate fractionation, DE52 cellulose, hydroxylapatite)) MDAIKKKMQMLKLDKENALDRAEQAEADKKAAEDRSKQLEDELVSLQKKLKGTEDELDKASEAAKDAQEKLELAEKKATDAEADVASLNRRIQLVEEELDRAQERAATALQKLEEAEKALDESERGMKVIESRAQKDEEKMEIQEIQLKEAKHIAEDADRKYEEVARKLVIIESDLERAEERAELSEGKCAELEEELKTVTNNLKSLEAQAEKYSQKEDKYEEEIKVLSDKLKEAETRAEFAERSVTKLEKSIDDLEDELYAQKLKYKAISEELDHALNDMTSI | 44.4 | 14.4 | 1.83e+06 | –
tropomyosin P2Shift C190S/L71C, unlabeled (natural protein, striated muscle alpha-tropomyosin, rat, cDNA in pET11d, expressed with an unacetylated N-terminal Met; Unlabeled form used for light scattering; source: E. coli BL21 (DE3), purified (ammonium sulfate fractionation, DE52 cellulose, hydroxylapatite)) not shown | – | – | – | 40.7
tropomyosin P3Shift C190S/L113C, unlabeled (natural protein, striated muscle alpha-tropomyosin, rat, cDNA in pET11d, expressed with an unacetylated N-terminal Met; Unlabeled form used for light scattering; source: E. coli BL21 (DE3), purified (ammonium sulfate fractionation, DE52 cellulose, hydroxylapatite)) not shown | – | – | – | 41.9
